The DeepSol protein solubility set

test: soluble on expression in E. coli; label from the status in PepcDB or PDB records

| Sequence | soluble on expression in E. coli |
| --- | --- |
| MRNFKKPDVLVSKCLEHGRCRYDGQMISSDFVKSTKKYFNYVPVCPEVEIGLSIPRNSLKIVFENEKFEFVQNITNNNYTSKITQFSSDFLDSIENIDGAVLKHKSPSCGIKNVKVYTAKGNPTNQKTEGFFAKEVLYRYSNIAIEEESRLRNKRIKDHFLTKLYTIKDFKEVKESESIKNLIEFHTNNKFLFMAYNQKQKDILGNIVGNHNKNFDKIIKLYEKHLQLLLKRPSAIGSNINVLMHIFGYMSNKISKDEKLLFIDSLQRYHDELDCLCVPIILLKSWVIRFNVDYLKKQTYFEPFPQELADNSEMFKRDYWND | not soluble |
| MSGVSLGRGQNANAAYLDNIKELGFKLVRRPTGGGALLHPEDNEITYSVVLSASNTIAKLSVDESAVEIAKGILYTLQILGENVDIRGLGDMKKHDLCYLRSGSSDVIVAGRKISGSAQVRDDKALLQHGTLLLRFEPEI | soluble |
| GMKDTDETAFLNSLFMDFTSENELELFLKSLDEVWSEDLYSRLSAAGLIRHVISKVWNKEQHRISMVFEYDSKEGYQKCQEIIDKEFGITLKEKLKKFVFKIHNNRGVVVSEFIRST | soluble |
| MSGVTAIEIPQWIQDNQEDFVPPVCNKCMFSDQLKVFYVGGPNQRKDFHLEEGEEFFFQRKGDMVLKVIEKGQVRDLVIKQGEMFMLPARVEHSPQRFSNSIGLVVERERKNTEFDCVRFLVGSSNITLFERWFYLTDVVKDLPPLIKEFYGSNEFKTGKPGKGTFACNAPYEARWTDLPVPINRKEFIYDHISEVKNGPVRIYGAPEYKTEVMLLGEGSYDLESGTVELLIWLQENTFAVVEESGFTYAMKSETMVRIKPNTKCLLNVKGGFAITIRMPA | not soluble |
| MSLTVIITGASSGIGAGLAKSFAADGHLVIACGRDASRLAALQQLSPNISVRLFDMTDRDACRQALTGCFADLIILCAGTCEYLDHGQVDAALVERVMATNFLGPVNCLAALQTQLEAGDRVVLVSSMAHWLPFPRAEAYGASKAALTWFANSLRLDWEPKGVAVTVVSPGFVDTPLTRKNDFAMPGRVSVDRAVAAIRHGLAKGKNHIAFPTGFSLALRLLASLPSGIQRLLLRRMVRSEGHHHHHH | soluble |
| GMSSSDRYMQRGVSSQKEDVHKAIKSIDKGIYPRAFCKIIPDILGGDPEYCNIMHADGAGTKSSLAYVYWKETGDISVWKGIAQDAVIMNIDDLICVGAVDNILLSSTIGRNKNLIPGEVLAAIINGTEEVLQMLRDNGIGIYSTGGETADVGDLVRTIIVDSTVTCRMKRQDVISNENIKAGNVIVGFASYGQTSYETEYNGGMGSNGLTSARHDVFNNVLASKYPESFDPKVPENLVYSGEMNLTDPYLNVPLDAGKLVLSPTRTYAPLMKEIIHQYKGKLDGVVHCSGGGQTKVLHFTDATTHIIKDNLFDVPPLFQLIQGQSNTPWEEMYKVFNMGHRLEIYTDAAHAEGMIAIAKKFNIEAKIIGRVEAPVAGKRLTITGPQGTEYTYA | soluble |
| MGSDKIHHHHHHASPKKVAPEKKGVETINRATAEAHIGFLACDELEGREAGWKGGRIAGNYIISCLKQMGIKPLDGDYIQPFDVYHAERQVKGKRWQVHPDSIAELKKVVYQKLALRNILGKIEGKNPNEIVIIGAHYDHIGYDPMLEGDQIYNGADDNASGVQAVLQVARAFLATGEQPERTVIFAFWDGEEKGLLGSRYFAMNYPDIKKVKGYLNYDMIGRNNREDQPDYFVYFYTAAHQAFGDWLKKDIEDYRLQLSPDYRAWDNPVGGSDNGTFAKLGIPIIWYHTDAHPDYHLPGDETQKINWLKIVDITKASFLAMWKLANEKKY | not soluble |
| MLLREINRYCKEKATGKRIYAVPKLWIPGFFKKFDEKSGRCFVDPYELGAEITDWILNQSREWDYSQPLSFLKGEKTPDWIKRSVVYGSLPRTTAAYNHKGSGYYEENDVLGFREAGTFFKMMLLLPFVKSLGADAIYLLPVSRMSDLFKKGDAPSPYSVKNPMELDERYHDPLLEPFKVDEEFKAFVEACHILGIRVILDFIPRTAARDSDLIREHPDWFYWIKVEELADYTPPRAEELPFKVPDEDELEIIYNKENVKRHLKKFTLPPNLIDPQKWEKIKREEGNILELIVKEFGIITPPGFSDLINDPQPTWDDVTFLRLYLDHPEASKRFLDPNQPPYVLYDVIKASKFPGKEPNRELWEYLAGVIPHYQKKYGIDGARLDMGHALPKELLDLIIKNVKEYDPAFVMIAEELDMEKDKASKEAGYDVILGSSWYFAGRVEEIGKLPDIAEELVLPFLASVETPDTPRIATRKYASKMKKLAPFVTYFLPNSIPYVNTGQEIGEKQPMNLGLDTDPNLRKVLSPTDEFFGKLAFFDHYVLHWDSPDRGVLNFIKKLIKVRHEFLDFVLNGKFENLTTKDLVMYSYEKNGQKIVIAANVGKEPKEITGGRVWNGKWSDEEKVVLKPLEFALVVQE | soluble |
| MKDLIELFWLRYTELQSAVGKNESDKIAVLERELELLLERIVGRKTESSEDIREQFRFAIDLLNHEAEDLGCVQRNSELLRTLVDRYVGMPLKAKVVGDEDEDTLAWHHRHLILDEDMLNDLDEPVVIVSPGYRVSFANALDAFQRNAPEGLIGCHIAELVGVHRFQNILREKLDNCFKGDTSKYTYAEDENGRTVVKSLEMSPCYSSAYKLVGAMVVIREIADRRRRAAG | not soluble |
| MKTLGYILMENGEKIDLEFFPEEAPKTVENFKKLAEQGFYDGVTFHRVIPGFVSQGGDPTGTGAGGPGYSIPCETDGNPHRHLVGSLSMAHAGRNTGGSQFFIVHEPQPHLDGVHTVFGKATSGIETVLNMRQGDVMKEVKVWEE | not soluble |
| MAQRLDGARFRYLNEQLYSGPSSAAQRLFQEDPEAFLLYHRGFQSQVKKWPLQPVDRIARDLRQRPASLVVADFGCGDCRLASSIRNPVHCFDLASLDPRVTVCDMAQVPLEDESVDVAVFCLSLMGTNIRDFLEEANRVLKPGGLLKVAEVSSRFEDVRTFLRAVTKLGFKIVSKDLTNSHFFLFDFQKTGPPLVGPKAQLSGLQLQPCLYKRR | soluble |
| SQPKLALKQLAKQGDECLKKGAWVLIFPEGTRIPVGQMGKFSRGGTALAVNAGLPVLPIAHNAGQYWPKAGWAKYPGTIQVVIGPAMHAEGEGPRAIAELNQRAEAWVSETMAEISPIQQRVSHPEPSVVS | not soluble |
| MAHHHHHHMKTKVELKFLGGLESYLANKSKNYVSLEIESEEFNFENLIAYIRNHIIVDRKDVFSDFVMSDGNVKSCNVMIDDKEYSNYNLSDKGKIKPGIIVLINEYDWEILDTYTYKIKNNDKICFLSTLHGG | soluble |
| MKKEIIVYTISDSLGETSQKLLAAASAQYPDISFLNRYNFSFVTTEEELLEILKDALKDKALVVSTLVSKQLITAAKEFSERTGLLYLDLMAPFFELIQAKAGVDPIEEPGRRHQLDRAYFDKISAIEFAVKYDDGKNPQGFLDSDILLLGVSRTSKTPVSMYLANQGYRVSNLPLIPEVPLPPILEEMDPQKMIGLVCSPETLGQIRSSRLASLGLGNETSYTNVERIEQELAYAEEIFAKYGIPVIDVTAKSVEETAFLIKEKLDERNLEHHHHHH | soluble |
| MNVLGRITAMPDLPEPLEGLKEIAYNLWWSWNPEAAELFQELDPALWKRFRGNPVKLLLELDPARLEALSASGYAARVQATREALRAYLEARRTKRGPLVAYFSAEYGFHSSLPIYAGGLGVLAGDHVKAASDLGLNLVGVGLFYHEGYFHQRLSPEGEQVEVYEPLRPEELPLVPVQDAEGRPVRVAVEFPGRLVHVGGYRVQVGAVPVYLLTTDLPENAPEDRQITARLYAAGLEARIQQELVLGLGGVRFLRALGLAPAFFHMNEGHSAFLGLERLRELVAEGYPFREALELARASALFTTHTPVPAGHDVFPLDLVDRYLGGFWEKLGVDRDTFLGLGLEEKPWGPVFSMSNLALRTAAQANGVSRLHGEVSRNMFRHLWPGLLAEEVPIGHVTNGVHTWTFLHPRLRRHYAEVFGPEWVERPEDPETWRVEGLGEAFWRIRQDLKLFLVREVRQRLYEQRRRNGEGPARLREAEKALDPEALTIGFARRFATYKRAVLLFKDPERLLRILKGPYPVQFVFAGKAHPKDEAGKAYLQELVSKIREYGLEDRMVVLEDYDMYLARVLTHGSDVWLNTPRRPMEASGTSGMKAALNGALNLSVLDGWWAEAYNGKNGFAIGDERVYESEEAQDVADAQALYDLLESEVIPLFYAKGLEGYSSGWMSMVHESLRTVGPYFSAGRMVRDYLALYERGALWEKEARARLEALKAFAEALSAFHALGVRPEVPGDLTLNGGRLEVGSVLEGEVPEGLRPHLRVQLVVRRLGGGLEVVDLEEVAPGRYRTAFRPTRPGSYTYGLRLALLHPVTGRVEWVRWA | soluble |
